Test results from patent publication US20080207488A1, “Method for Detecting Peptides Comprising a Cross-B Structure” (priority 2005, published 2008).
One block for each substance: values may come before it.

What was measured:
U937 monocytes = test: TNFα RNA upregulation in U937 monocytes (RT-PCR); assay type: cell-based, human; details: 1 h stimulation; 100 μg ml^−1 amyloid endostatin, 260 μg ml^−1 Hb-AGE; LPS 1 μg ml^−1; normalized to 18S
Procedure: U937 monocytes were cultured in six-wells plates. Cells were stimulated with buffer (negative control), 1 μg ml^−1 LPS (positive control), 100 μg ml^−1 amyloid endostatin^1,7, 260 μg ml^−1 Hb-AGE and 260 μg ml^−1 control Hb. After 1 h of stimulation, cells were put on ice. After washing RNA was isolated and quantified spectrophotometrically. Normalized amounts of RNA were used for 26 cycli of RT-PCR with human TNFα primer and 18 cycli of RT-PCR with ribosomal 18S primer for normalization purposes. DNA was analyzed on a 2% agarose gel.

factor XII = target: T1, factor XII (Homo sapiens, UniProt P00748); test: Factor XII auto-activation assay with substrate S-2222; assay type: biochemical; details: purified factor XII, 100 μg ml^−1 FP13 K157G, 10 μg ml^−1 Aβ(1-40) E22Q, 10 μg ml^−1 Hb-AGE, DXS500k 1 μg ml^−1 as comparator
T1 construct: purchased Calbiochem, EMD Biosciences #233490
T1 sequence (P00748 20-615): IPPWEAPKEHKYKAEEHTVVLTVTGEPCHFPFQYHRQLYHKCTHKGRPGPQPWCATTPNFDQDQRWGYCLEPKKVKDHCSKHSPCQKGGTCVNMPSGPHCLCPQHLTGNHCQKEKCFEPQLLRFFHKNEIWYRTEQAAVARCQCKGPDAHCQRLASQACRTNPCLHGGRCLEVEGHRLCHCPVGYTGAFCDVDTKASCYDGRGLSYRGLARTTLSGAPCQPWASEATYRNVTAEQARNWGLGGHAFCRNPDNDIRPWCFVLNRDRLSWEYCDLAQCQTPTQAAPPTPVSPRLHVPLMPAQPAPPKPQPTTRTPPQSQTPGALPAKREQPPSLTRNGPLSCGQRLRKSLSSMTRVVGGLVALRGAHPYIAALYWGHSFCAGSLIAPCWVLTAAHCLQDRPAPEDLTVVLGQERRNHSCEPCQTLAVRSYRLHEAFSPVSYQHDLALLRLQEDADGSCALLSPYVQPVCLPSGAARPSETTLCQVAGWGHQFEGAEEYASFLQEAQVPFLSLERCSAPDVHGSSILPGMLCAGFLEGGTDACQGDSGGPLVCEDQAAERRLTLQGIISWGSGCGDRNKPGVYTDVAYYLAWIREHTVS
Procedure: Plasmin (Pls) activity was assayed as described^7. Peptides and proteins that were tested for their stimulatory ability were regularly used at 100 μg ml^−1. […] Chromogenic substrate S-2251 (Chromogenix, Instrumentation Laboratory SpA, Milano, Italy) was used to measure Pls activity. Conversion of zymogen factor XII (#233490, Calbiochem, EMD Biosciences, Inc., San Diego, Calif.) to proteolytically active factor XII (factor XIIa) was assayed by measurement of the conversion of chromogenic substrate Chromozym-PK (Roche Diagnostics, Almere, The Netherlands) by kallikrein. Chromozym-PK was used at a concentration of 0.3 mM. Factor XII, human plasma prekallikrein (#529583, Calbiochem) and human plasma cofactor high-molecular weight kininogen (#422686, Calbiochem) were used at concentrations of 1 μg ml^−1. […] Assays were performed using microtiter plates (Costar, Cambridge, Mass., USA). […] The conversion of Chromozym-PK was recorded kinetically at 37° C. for at least 60 minutes. […] With S-2222, activation of factor XII in plasma was measured, using 60% v/v plasma, diluted with substrate and H2O with or without potential cofactor. Furthermore, auto-activation of factor XII was measured by incubating 53 μg ml^−1 purified factor XII in 50 mM Tris-HCl buffer pH 7.5 with 1 mM EDTA and 0.001% v/v Triton-X100, with S-2222 and H2O with or without potential cofactor.

tPA = target: T2, tPA (Homo sapiens, UniProt P00750); test: tPA ELISA with proteins pre-incubated with DXS500k; assay type: binding
T2 construct: purchased Boehringer-Ingelheim (Actilyse, Alteplase)
T2 sequence (P00750 36-562): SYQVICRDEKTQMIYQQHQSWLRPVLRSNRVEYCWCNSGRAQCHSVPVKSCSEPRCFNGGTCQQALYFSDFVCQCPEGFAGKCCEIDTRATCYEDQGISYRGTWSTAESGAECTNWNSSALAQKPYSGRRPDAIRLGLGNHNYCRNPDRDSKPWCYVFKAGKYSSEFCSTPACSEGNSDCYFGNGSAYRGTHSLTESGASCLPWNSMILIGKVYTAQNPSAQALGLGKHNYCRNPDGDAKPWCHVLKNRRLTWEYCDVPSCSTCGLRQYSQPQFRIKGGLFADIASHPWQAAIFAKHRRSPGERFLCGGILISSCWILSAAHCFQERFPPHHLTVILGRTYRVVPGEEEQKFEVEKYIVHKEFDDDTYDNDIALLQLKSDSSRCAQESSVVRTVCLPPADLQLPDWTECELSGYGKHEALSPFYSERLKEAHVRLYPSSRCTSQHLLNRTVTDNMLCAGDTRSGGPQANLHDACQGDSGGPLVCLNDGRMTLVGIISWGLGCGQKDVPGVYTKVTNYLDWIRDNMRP

Substance: Hb-AGE: human haemoglobin incubated 32 weeks at 37° C. with glucose-6-phosphate
TNFα RNA expression when compared to LPS (U937 monocytes): approximately 30%

Substance: freshly dissolved FP13 K157G: FP13 K157G peptide freshly dissolved, not aggregated (KRLEVDIDIGIRS)
potency to induce factor XII auto-activation (factor XII): did not or hardly auto-activate factor XII

tPA binding to protein pre-incubated overnight with DXS500k (tPA): binds specifically
Substance: factor XII: zymogen factor XII (Calbiochem), here pre-incubated with DXS500k
